From US20210189432A1 (UNIVERSITY OF UTAH RESEARCH FOUNDATION, published 2021)

B1: Drosophila Arc homolog dArc1 (Drosophila Arc1, NP_610955.1) (other, UniProt Q7K1U0 1-254, looked up)
chain: MAQLTQMTNEQLRELIEAVRAAAVGAAGSAAAAGGADASRGKGNFSACTHSFGGTRDHDVVEEFIGNIETYKDVEGISDENALKGISLLFYGMASTWWQGVRKEATTWKEAIALIREHFSPTKPAYQIYMEFFQNKQDDHDPIDTFVIQKRALLAQLPSGRHDEETELDLLFGLLNIKYRKHISRHSVHTFKDLLEQGRIIEHNNQEDEEQLATAKNTRGSKRTTRCTYCSFRGHTFDNCRKRQKDRQEEQHEE
B2: myc-Arc-WT (full-length rat WT Arc expressed in HEK293 cells) (other)
chain: MELDHMTTGGLHAYPAPRGGPAAKPNVILQIGKCRAEMLEHVRRTHRHLLTEVSKQVERELKGLHRSVGKLENNLDGYVPTGDSQRWKKSIKACLCRCQETIANLERWVKREMHVWREVFYRLERWADRLESMGGKYPVGSEPARHTVSVGVGGPEPYCQEADGYDYTVSPYAITPPPAAGELPEQESVGAQQYQSWVPGEDGQPSPGLDTQIFEDPREFLSHLEEYLRQVGGSEEYWLSQIQNHMNGPAKKWWEFKQGSVKNWVEFKKEFLQYSEGTLSREAIQRELDLPQKQGEPLDQFLWRKRDLYQTLYVDAEEEEIIQYVVGTLQPKFKRFLRHPLPKTLEQLIQRGMEVQDGLEQAAEPSVTPLPTEDETEALTPALTSESVASDRTQPE
notes: Crosslinked in situ inside transfected HEK293 cells with formaldehyde; also called WT myc-Arc; not shown: myc tag of pRK5-myc-Arc

Tests used:
[1] = target: the molecule itself; test: negative stain EM of purified protein (self-assembly)
[2] = target: the molecule itself; test: formaldehyde crosslinking in situ in HEK293 cells, western blot
Method: Western blot samples were mixed with 4× Laemlli buffer (40% glycerol, 250 mM Tris, 4% SDS, 50 mM DTT, pH 6.8) and heated at 70° C. for 5 min. SDS-PAGE gel electrophoresis was used to separate protein samples. Separated samples were transferred to a nitrocellulose membrane (GE Healthcare). Following transfer, membranes were briefly stained with 0.1% Ponceau stain, then destained with 1% acetic acid to remove background, for imaging of total protein. […] Membranes were washed 3×10 min in 1×TBS, then incubated in an HRP-conjugated secondary antibody (Jackson ImmunoResearch) in block for 1 h at RT. After 3×10 min in 1×TBS, a chemiluminescent kit (Bio-Rad, Hercules, Calif.) was used to detect the protein bands, and the membranes were imaged on an Azure c300 gel dock (Azure Biosystems, Dublin, Calif.). Blots were analyzed and quantified using the Gel Analysis plugin in ImageJ.
Media was removed and pelleted cells were then crosslinked with 0.4% formaldehyde in PBS for 10 min with rocking at RT. Cell suspensions were immediately quenched with Tris to a final concentration of 50 mM and repelleted. […] Lysates were cleared by centrifugation at 21,000×g for 10 min at 4° C. and cleared supernatants were then run on a 4%-8% gradient gel and analyzed via western blot with antibodies for Arc (mouse monoclonal, Santa Cruz) and GFP (chicken polyclonal, Ayes).

Protein	binding result [1]	binding result [2]
B1	binds	–
B2	–	binds
